Substrate in this data set: O=C(O)CCC(=O)C(=O)O
The experiment in a line: purified protein. Type of data set: biochemical, Halorubrum sp. CSM-61. Conditions: α-KG varied 1-20 mM, amino donor (R)-methylbenzylamine co-varied at 5 equivalents, 0.5 mM PLP, phosphate pH 8.0, 1 M KCl, 30% DMF, 45 °C per general assay, the varied substrate is named only in Method.

B1: BC61-TAm (Halorubrum sp. CSM-61) (protein)
chain: MGFDEMDVDTIWKNGEFLDWEDATTHVLTHALHYGSGVFEGVRCYDTEQGPAVFRWDEHLDRLFDSAKMYDLDIEHSREEITEATMELLRRQDLESCYIRPIAYYGYDSLGVSPKECPTDLVVAAWPWGAYLGEEALEDGVDVMVSSWRKHASSQVPTNVKTTGLYVNSMLAGEEARRNGYVEAIVLNKEGNVAEGPGENVFMVNDGEIYTTGPAQSILEGITRDTVIELAEERGYTVHDEAVVSRGQLYTADELFFTGSAAEVTPIRSVDDTEIGAGTRGPVTEELQSAFFDLVERRTDAHDDWFTYV
notes: full-length gene (930 bp), N-terminal 6xHis tag (pTA1228), expressed in Haloferax volcanii H1424, IMAC purified, 34-35 kDa
Usually Km stands for the substrate concentration at which the rate is half of its maximum. By kcat is commonly meant the number of substrate molecules converted per active site and unit of time at saturation. In the case of B1, the Km worked out at 3.37 mM and the catalytic constant (kcat) is 2.52 min⁻¹.

The record behind these values is paper PMC6597733, “Characterisation of a solvent-tolerant haloarchaeal (R)-selective transaminase isolated from a Triassic period salt mine” (Applied Microbiology and Biotechnology, 2019).
